Four molecules from patent US20060234940A1 (OSI PHARMACEUTICALS, published 2006) can be followed below.

Where no end group is shown, it is not given here. The star is where a group is joined. Thia = thiazolidide, C1CN(*)CS1

Test [1] addresses T1, porcine kidney DP IV, wild type (porcine, UniProt P22411 38-766, natively glycosylated (Asn279 among others, as seen in the crystal)).
T1 construct: In the crystal a 2-2-2 symmetric tetramer (dimer of dimers); also called p wt DP IV; p wt
As to the kind of experiment: photometric assay, competition with the standard substrate GP-4NA.
Protocol: (§1) In order to measure the inhibition constant Kᵢ a photometric assay was used The peptides were measured as competitors of the standard substrate GP-4-Nitroanilide. Three different substrate concentrations (0.4 mM to 0.05 mM) were combined with 8 different competitor concentrations (0.5 mM to 2 μM). […] Experiments were carried out under standard conditions: 30° C. in pH 7.6 40 mM HEPES (Sigma-Aldrich) buffer. Nitroaniline production was monitored using a HTS 7000+ microplate reader (PerkinElmer, Überlingen, Germany).

In the next test the target is DP IV. As to the kind of experiment: photometric assay, competition with the standard substrate GP-4-nitroanilide; source of DP IV not stated.
Test [2] deals with T1, porcine kidney DP IV, wild type. As to the kind of experiment: MALDI-TOF MS, inhibition of DP IV-catalyzed truncation of the substrate GIP after preincubation with TFTSDY.
Test [3] shares this target. Kind of test: MALDI-TOF MS, inhibition of DP IV-catalyzed truncation of the substrate NPY after preincubation with TFTSDY.
For test [4] the target is unchanged. As to the kind of experiment: MALDI-TOF MS, inhibition of DP IV-catalyzed truncation of the substrate GLP-1 after preincubation with TFTSDY.
Test [5] has the same target. Kind of test: MALDI-TOF MS, inhibition of DP IV-catalyzed truncation of the substrate glucagon after preincubation with TFTSDY.
Test [6] has the same target. Kind of test: MALDI-TOF MS, inhibition of DP IV-catalyzed truncation of the substrate RANTES1-15 after preincubation with TFTSDY.
In test [7] the target is T2, recombinant human DP IV, mutation R560A (human, UniProt P27487 37-766).
T2 construct: range 37-766; Same Pichia construct as the wild type, single mutation by site-directed mutagenesis; also called mu 15 DP IV; mu 15
Kind of test: photometric assay, competition with the standard substrate GP-4NA.
Protocol: as §1

For test [8], the target named is T3, recombinant human DP IV, mutation W629A (human, UniProt P27487 37-766).
T3 construct: range 37-766; Same Pichia construct as the wild type, single mutation by site-directed mutagenesis; also called mu 16 DP IV; mu 16
Described as above.
Protocol: as §1

T1 sequence (P22411 38-766): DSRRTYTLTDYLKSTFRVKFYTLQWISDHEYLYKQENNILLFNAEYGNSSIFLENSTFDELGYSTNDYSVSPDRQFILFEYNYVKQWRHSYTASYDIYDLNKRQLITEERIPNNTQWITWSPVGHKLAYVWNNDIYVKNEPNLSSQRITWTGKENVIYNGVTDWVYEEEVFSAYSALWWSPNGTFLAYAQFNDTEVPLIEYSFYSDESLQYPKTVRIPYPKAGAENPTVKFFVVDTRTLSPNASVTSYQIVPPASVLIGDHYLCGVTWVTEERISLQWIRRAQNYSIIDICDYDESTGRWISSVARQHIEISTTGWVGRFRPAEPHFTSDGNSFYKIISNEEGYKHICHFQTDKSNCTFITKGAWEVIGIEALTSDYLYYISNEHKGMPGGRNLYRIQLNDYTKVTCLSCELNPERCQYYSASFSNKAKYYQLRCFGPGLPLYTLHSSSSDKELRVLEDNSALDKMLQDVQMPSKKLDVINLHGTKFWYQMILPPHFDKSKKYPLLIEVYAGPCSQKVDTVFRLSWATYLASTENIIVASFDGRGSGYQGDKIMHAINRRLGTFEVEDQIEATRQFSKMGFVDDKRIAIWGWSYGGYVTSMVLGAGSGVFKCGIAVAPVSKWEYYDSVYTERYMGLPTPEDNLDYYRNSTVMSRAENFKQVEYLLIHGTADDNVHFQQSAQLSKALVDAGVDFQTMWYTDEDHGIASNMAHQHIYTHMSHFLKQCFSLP
T2 sequence (P27487 other isoform, or with tags, fused parts or gaps R560A R560A limits assumed): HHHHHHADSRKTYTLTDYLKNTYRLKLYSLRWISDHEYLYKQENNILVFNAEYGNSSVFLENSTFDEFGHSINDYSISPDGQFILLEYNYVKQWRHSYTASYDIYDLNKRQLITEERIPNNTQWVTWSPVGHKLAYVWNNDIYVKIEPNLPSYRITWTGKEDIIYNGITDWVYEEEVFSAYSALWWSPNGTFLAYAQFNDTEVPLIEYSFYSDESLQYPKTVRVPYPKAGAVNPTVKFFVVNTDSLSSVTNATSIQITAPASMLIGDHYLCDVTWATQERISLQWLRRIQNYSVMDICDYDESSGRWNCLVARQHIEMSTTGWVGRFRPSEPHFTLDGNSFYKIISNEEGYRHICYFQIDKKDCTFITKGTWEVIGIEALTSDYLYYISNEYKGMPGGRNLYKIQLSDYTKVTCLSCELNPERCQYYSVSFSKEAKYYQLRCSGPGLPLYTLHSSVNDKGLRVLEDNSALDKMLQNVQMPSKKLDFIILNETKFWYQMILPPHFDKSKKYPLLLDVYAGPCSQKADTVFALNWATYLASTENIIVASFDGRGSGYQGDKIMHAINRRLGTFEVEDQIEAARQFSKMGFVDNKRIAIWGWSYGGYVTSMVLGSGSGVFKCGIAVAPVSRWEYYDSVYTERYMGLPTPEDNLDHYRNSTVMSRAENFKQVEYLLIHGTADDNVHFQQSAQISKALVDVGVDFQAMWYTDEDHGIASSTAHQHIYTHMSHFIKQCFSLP
T3 sequence (P27487 other isoform, or with tags, fused parts or gaps W629A W629A limits assumed): as the sequence (P27487 other isoform, or with tags, fused parts or gaps R560A R560A limits assumed) above, with A530R, W599A counted along it
Chain of DP IV (chain, as listed by the source): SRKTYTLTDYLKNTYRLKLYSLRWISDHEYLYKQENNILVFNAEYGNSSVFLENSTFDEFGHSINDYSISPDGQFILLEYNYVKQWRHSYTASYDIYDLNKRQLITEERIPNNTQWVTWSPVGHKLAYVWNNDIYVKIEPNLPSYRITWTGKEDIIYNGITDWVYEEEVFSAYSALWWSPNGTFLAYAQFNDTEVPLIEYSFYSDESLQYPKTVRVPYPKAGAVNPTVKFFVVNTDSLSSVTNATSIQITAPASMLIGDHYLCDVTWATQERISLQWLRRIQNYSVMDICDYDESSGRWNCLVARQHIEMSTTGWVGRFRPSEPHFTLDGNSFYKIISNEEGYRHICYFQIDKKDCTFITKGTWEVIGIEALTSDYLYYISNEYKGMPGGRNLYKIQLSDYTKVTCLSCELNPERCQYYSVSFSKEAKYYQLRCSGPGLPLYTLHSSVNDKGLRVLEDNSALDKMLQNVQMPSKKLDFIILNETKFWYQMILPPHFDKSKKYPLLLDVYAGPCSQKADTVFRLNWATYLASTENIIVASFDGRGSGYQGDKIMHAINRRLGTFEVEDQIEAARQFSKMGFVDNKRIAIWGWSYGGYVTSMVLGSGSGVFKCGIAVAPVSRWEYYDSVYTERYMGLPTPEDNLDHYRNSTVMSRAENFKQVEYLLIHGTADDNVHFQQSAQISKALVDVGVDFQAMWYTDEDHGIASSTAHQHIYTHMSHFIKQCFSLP

A word on the Ki: it is the equilibrium dissociation constant of an inhibitor or competing ligand from its target. HSDGIFTDSYSRYRKQMAVKKYLAAVL (peptide, UniProt P18509 132-158, looked up, ends and bridges not checked, range 132-158; also called PACAP(1-27)) [PACAP-27] gave an inhibition constant Ki in test [1] of 54.3 µM.

B1: hexapeptide TFTSDY (peptide)
peptide: TFTSDY
notes: also called glucagon5-10; T(5)-F-T-S-D-Y
Consider B1, for which the Ki with DP IV is 710 µM; in test [2], 65.9 µM; in test [3] it was 17.2 µM; in test [4], 13.7 µM; in test [5], 6.8 µM; in test [6] it was 12.3 mM.

For the molecule RRLSYSRRRFE-Thia (also: linkage of decapeptide to Glu not explained) [Transp 01 (RRLSYSRRRF-E-Thia)], the inhibitory constant (Ki) was found to be 76.9 nM in [7] and 85.5 nM in [8].

YAESTF-NH2 [YAESTF amide]: the Ki came out at 1140 nM in test [7] and 1060 nM in test [8].
